This note sets out measurements from patent US20070036789A1 (NATIONAL CANCER CENTER, published 2007).

Residue numbers refer to the chain shown, from its start.

Test [1] concerns the target T1, phage containing the peptide of SEQ ID NO: 32.
T1 construct: The phage coat fusion is not described
T1 peptide: HHPHFKPVSNSR
In words: phage peptide library panned on the coated Fab, clones selected by EIA. The protocol: (§1) A 96-well plate (costar No. 3690) was coated with anti-HGF H61 Fab or anti-HGF H68 Fab dissolved in 25 μl of TBS solution at a concentration of 10 μg/ml per well. PHD peptide library (phage display of combinatorial peptide library) (new England Biolob.) was added to the well plate, and then, the well plate was kept for 2 hrs at room temperature. The well plate was washed with 0.5% (v/v) Tween 20 in PBS and eluted with 0.1 M HCl-glycine (pH 2.2). The washing steps were increased from 5 times in the first round to 10 times in the second round and 15 times in the subsequent rounds. Typically seven rounds of panning were carried out. After the last round of panning, the phage clones containing anti-HGF H61 Fab or anti-HGF H68 Fab were selected by EIA using anti-HGF H61 Fab or anti-HGF H68 Fab-coated ELISA plate and horseradish peroxidase-conjugated anti-M13 phage goat monoclonal antibody (Roche). The selected clones were subjected to nucleotide sequencing and the amino acid sequences were determined from the analyzed nucleotide sequences.
(§2) Nucleotide sequencing was performed according to the dye-labeled primer sequencing method (Chung et al., supra) using a sequencing primer of SEQ ID NO: 31. As a result, peptides encoding anti-HGF H61 and H68 Fabs deduced from the analyzed nucleotide sequences had the amino acid sequences of SEQ ID NOs: 32 and 33, respectively.

Test [2] addresses T2, phage containing the peptide of SEQ ID NO: 33.
T2 construct: The phage coat fusion is not described
T2 peptide: KSLSRHDHIHHH
Described as above. The protocol: as §1, §2

In a further test the target is T3, c-Met (UniProt P08581 25-932, limits assumed).
T3 construct: also called HGF receptor
The test is described as follows: SPR, c-Met on CM5 chip, Fab injected alone. Here is the method:
To ascertain the fact that anti-HGF H68 Fab can inhibit the binding of HGF to c-Met in real time, c-Met was coupled to CM5 sensor chip through an amine coupling method. Thereafter, HGF alone was injected at a concentration of 50 nM, and premixed with anti-HGF H68 Fab of 5 different concentrations (50 nM, 250 nM, 500 nM, 1 μM and 1.5 μM) and soluble c-Met of 5 different concentrations (50 nM, 100 nM, 200 nM, 400 nM, 600 nM), respectively. Binding interaction was allowed to proceed in PBS buffer containing 0.005% surfactant P20 at a flow rate of 30 μl/min at 25° C. The surface was regenerated with 1 M NaCl/50 mM NaOH.
There was no binding of HGF in case when anti-HGF H68 Fab alone was injected.
(Surface plasmon resonance follows binding to a sensor surface in real time, without labels.)

T3 sequence (P08581 25-932 limits assumed): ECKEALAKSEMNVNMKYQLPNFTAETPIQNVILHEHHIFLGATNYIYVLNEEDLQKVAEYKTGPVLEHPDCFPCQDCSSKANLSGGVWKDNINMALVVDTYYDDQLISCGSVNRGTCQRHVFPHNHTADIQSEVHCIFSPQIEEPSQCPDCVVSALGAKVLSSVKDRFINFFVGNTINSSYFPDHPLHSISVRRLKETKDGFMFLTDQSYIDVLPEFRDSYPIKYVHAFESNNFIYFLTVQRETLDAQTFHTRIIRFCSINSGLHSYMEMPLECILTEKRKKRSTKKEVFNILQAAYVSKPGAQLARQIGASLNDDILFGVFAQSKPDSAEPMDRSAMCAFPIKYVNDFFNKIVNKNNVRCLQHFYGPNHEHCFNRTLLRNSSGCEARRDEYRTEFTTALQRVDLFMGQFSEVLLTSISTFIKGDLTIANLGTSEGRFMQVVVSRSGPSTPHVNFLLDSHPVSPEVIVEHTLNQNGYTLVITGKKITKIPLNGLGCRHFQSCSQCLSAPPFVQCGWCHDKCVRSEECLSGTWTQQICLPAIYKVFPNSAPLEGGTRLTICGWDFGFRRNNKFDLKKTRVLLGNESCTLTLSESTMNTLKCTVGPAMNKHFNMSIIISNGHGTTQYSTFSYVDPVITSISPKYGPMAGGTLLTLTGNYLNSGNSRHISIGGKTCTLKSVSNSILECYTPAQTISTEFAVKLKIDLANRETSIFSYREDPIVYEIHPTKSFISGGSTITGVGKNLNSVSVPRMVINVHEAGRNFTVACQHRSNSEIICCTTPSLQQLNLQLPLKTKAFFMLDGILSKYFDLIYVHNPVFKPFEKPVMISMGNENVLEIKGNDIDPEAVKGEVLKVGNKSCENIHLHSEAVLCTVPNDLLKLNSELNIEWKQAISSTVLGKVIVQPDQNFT

B1: anti-HGF H61 Fab (Fab, V domains shown)
VH: QEQLMESGGRLVNPGESLTLTCKASGFTFSSYYMSWVRQAPGKGLEWIGYIGTSSGTTYYANSVKGRFTISSDNAQNTVFLRMTSLTDSDTATYFCARGLGRINLWGPGTLVTVSS
VL: ELVLTQTPSSMSAAVGGTVTINCQASQSVSNYLAWYQQKPGQPPKLLIYRASTLASGVPSRFSGSGSGTEFTLTISGMKAEDAATYYCQSGYYSAGATFGGGTNVEIKR
notes: Rabbit/human chimeric Fab: rabbit VH and VL joined to human CH1 and Ckappa from pComb3X; purified through its HA tag; also called clone 61; clone 61 Fab
In the case of B1, the binding result in test [1] was “binds”.

B2: anti-HGF H68 Fab (Fab, V domains shown)
VH: B1 VH with E2Q, M5V, S31T, R82Q
VL: B1 VL with V3D, M11V, Y32L, R50G, T53N, A55E, S63R, G101A
notes: Rabbit/human chimeric Fab: rabbit VH and VL joined to human CH1 and Ckappa from pComb3X; purified through its HA tag; also called clone 68; clone 68 antibody
For B2, the binding result is “binds” in test [2], “binds” in test [1] and “no binding” with c-Met.
